From article PMC5805389 (Biochemistry, 2016)
Changes are numbered by the printed parent chain. Names may count otherwise.

B1: human DJ-1, wild type (natural protein)
chain: GSHMASKRALVILAKGAEEMETVIPVDVMRRAGIKVTVAGLAGKDPVQCSRDVVICPDASLEDAKKEGPYDVVVLPGGNLGAQNLSESAAVKEILKEQENRKGLIAAICAGPTALLAHEIGFGSKVTTHPLAKDKMMNGGHYTYSENRVEKDGLILTSRGPGTSFEFALAIVEALNGKEVAAQVKAPLVLKD
B2: human DJ-1 D24N (natural protein)
chain: B1 chain with D27N

Biological target: the molecule itself
Assay: crystal structure

Protein	stoichiometry N	binding result
B1	2	
B2		binds
